Measurements published in the Human Domainome abundance scans (Beltran et al. 2025).

B1: Double-stranded RNA-binding protein Staufen homolog 1, residues 183 to 249; numbered along this chain, O95793 (parent)
chain: KSEISQVFEIALKRNLPVNFEVARESGPPHMKNFVTKVSVGEFVGEGEGKSKKISKKNAAIAVLEEL

Variants of: B1
Assay: abundance fitness (aPCA) (normalised: wild type 0, dead -1); higher = more abundant; growth selection in yeast, the domain comes from the species named
Conditions: Homo sapiens

Abundance fitness: each site, then its substitutions
K32: T -0.118 | Y -0.187 | I -0.178 | N -0.192 | L -0.179 | S -0.138 | Q -0.129 | W -0.483 | P -0.099 | H -0.249 | R -0.052 | M -0.178
K37: T -0.364 | R 0.034 | V -0.345 | P -0.756 | I -0.529 | N -0.328 | G -0.758 | E -0.553 | C -0.251 | H -0.292 | Y -0.681 | S -0.364 | A -0.293 | Q -0.25 | F -0.58 | W -0.442 | L -0.311
V38: S -0.46 | G -0.557 | F -0.352 | Q -0.704 | T -0.481 | P -0.67 | M -0.231 | Y -0.774 | D -0.57 | I -0.168 | N -0.445 | L -0.081 | A -0.196 | W -0.988 | R -0.654 | E -0.554 | K -0.511
N33: Q -0.047 | R 0.008 | K -0.011 | I -0.117 | E -0.269 | D -0.376 | G -0.221 | Y -0.255 | P -0.386 | S -0.016 | C -0.163 | M -0.128 | A -0.219 | W -0.054 | V -0.115 | L -0.072 | H 0.016 | T 0.052 | F -0.29
T36: L -1.04 | Y -0.449 | D -0.6 | V -0.684 | G -0.664 | K -0.689 | W -1.12 | C 0.046 | S -0.204 | N -0.674 | Q -0.548 | I -1.1 | P -0.671 | R -0.768 | M -0.749 | A -0.251 | F -1.38
G41: E -0.611 | D -0.761 | N -0.853 | F -1.18 | C -0.911 | I -1.41 | Q -0.979 | R -0.941 | H -0.737 | M -0.888 | L -0.91 | P -0.645
F34: T -0.428 | W 0.089 | E -0.56 | P -0.458 | K -0.725 | C -0.547 | I -0.372 | S -0.54 | L -0.698 | H -0.544 | Q -0.447 | M -0.56 | N -0.468 | G -0.554 | R -0.74 | Y 0.038 | D -0.578 | V -0.541
V35: I 0.046 | P -0.502 | Q -0.093 | D -0.511 | A -0.256 | K 0.048 | M -0.083 | F 0.033 | L -0.021 | R 0.04 | G -0.497 | T -0.02 | N -0.35 | H 0.029 | S -0.111 | E -0.393 | Y -0.174 | W -0.186
V40: T -0.541 | G -0.681 | R -0.811 | M -0.312 | L -0.199 | I -0.514 | D -0.577 | F -0.564 | Q -0.542 | C -0.289 | W -1.3 | P -0.442 | S -0.703 | A -0.501 | H -0.783 | E -0.555 | K -0.851 | N -0.617 | Y -0.809
S39: H -0.081 | E -0.146 | Q -0.034 | D -0.542 | I -0.12 | K -0.05 | L -0.267 | C -0.064 | R 0.029 | Y -0.051 | P -0.703 | M -0.056 | F -0.099 | G -0.55 | W -0.119 | A -0.067 | N -0.138 | V -0.038
